According to patent US8673594B2, “Methods for stimulating nervous system regeneration and repair by regulating arginase I and polyamine synthesis” (Research Foundation of City University of New York, priority 2000, dated 2014):
“Also recorded” adds a separate entry of the source.

What was measured:
[1] = tested on: cerebellar neurons on MAG-expressing CHO cells; test: Neurite outgrowth of cerebellar neurons on MAG-expressing or control CHO cells; assay type: cell-based; conditions: for block of inhibition of neurite growth by MAG after priming: neurons primed overnight with neurotrophin 200 ng/ml, then transferred to CHO monolayers
Method: FIG. 2: Improved Axonal Growth on MAG Induced By Elevating cAMP Levels is Transcription-Dependent. (A) Isolated cerebellar neurons at a density of 20,000 neurons per well were plated onto a monolayer of either MAG-expressing Chinese hamster ovary (CHO) cells (striped bars) or control CHO cells (black bars) and cultured overnight before being fixed and immunostained for GAP43 to visualize the neurites. The length of the longest neurite per neuron, from 180-200 neurons, was measured and results are the average length+/−SEM. Where indicated, dibutyryl cAMP (dbcA) at 1 mM in the presence or absence of the inhibitor of transcription, 5,6-dichloro-1-b-D-ribofuranosylbenzimidazole (DRB) at 5 μM, was added to each culture. (B) Cerebellar neurons (1×10^6) were plated onto poly-L-lysine and cultured overnight with brain-derived neurotrophic factor (BDNF) at 200 ng/ml, (termed priming) in the presence or absence of DRB at 5 μM, before being transferred to the CHO cell monolayers.
FIG. 6: An Ornithine Decarboxylase (ODC) Inhibitor Abrogates the Blocking Effect of dbcAMP on the Inhibition of Axonal Outgrowth by MAG and Myelin. […] The longest neurite from at least 180-200 neurons were measured. Results are shown as the mean neurite length+/−SEM.
(§1) After further incubation, neurons were fixed and immunostained for GAP43. The longest neurite from each neuron for 180-200 neurons were measured. Results are shown as the mean neurite length+/−SEM.
FIG. 8: An Inhibitor Of ODC Blocks The Priming Effects Of GDNF On The Inhibition By MAG. […] After further incubation, neurons were fixed and immunostained for GAP43. The longest neurite from each neuron for 180-200 neurons were measured. Results are shown as the mean neurite length±SEM.
Primed neurons were transferred to either MAG-expressing or control CHO cells (A) or a substrate of CNS myelin (B) for further incubation. Neurons were then fixed and immunostained for GAP43. The longest neurite from each neuron was measured for 180-200 neurons. Results are shown as the percentage of control. […]
Neurons were isolated essentially as described in Doherty at al., Nature, 343, pp. 464-66 (1990); Neuron, 5, pp. 209-19 (1990); and Kleitman at al., Culturing Nerve Cells, pp. 337-78, MIT Press, Cambridge, Mass./London, England (G. Banker and K Goslin, Eds.) (1991). Briefly, for animals up to nine days of age, the cerebellum, from two animals were removed and combined in 5 ml of 0.025% trypsin in PBS, triturated, and incubated for a further 10 minutes (min.) at 37° C. Trypsinization was stopped by addition of 5 ml DMEM containing 10% fetal calf serum (FCS) and cells were centrifuged at 800 rpm for 6 min. […] For older DRG neurons, ganglia were removed from two animals and incubated in 5 ml of Sat medium containing 0.025% trypsin and 0.15% collagenase type I (Worthington) for 30 min. at 37° C. The ganglia were triturated with a fire-polished Pasteur pipette. Trypsinization was stopped by adding 5 ml of DMEM containing 10% FCS, centrifuged at 800 rpm for 6 min, and resuspended in 2 ml of SAT (DeBellard et al., 1996). Cells were counted with a Coulter counter.
Chinese hamster ovary (CHO) cells deficient in the dihydrofolate reductase (dhfr) gene (Urlaub and Chasin, Proc. Natl, Acad, Sci. 77, pp. 4216-20 (1980)) were transfected with a MAG-cDNA expression plasmid with the dhfr gene and the L-MAG cDNA, cells with multiple copies of dbfr were selected by growing in increasing concentrations of methotrexate, and the expression of MAG by individual transfected CHO cell lines characterized as described in Mukhopadhyay et al., Neuron, 13, pp. 757-67 (1994), which is incorporated herein by reference. The MAG-expressing transfected CHO cell line) (“CHO-MAG2”) in that publication was deposited on Jun. 27, 1996 with the American Type Culture Collection (ATCC) (Rockville, Md.) according to the provisions of the Budapest Treaty, and was assigned the ATCC accession number designated: ATCC CRL-12145. […]

[2] = tested on: cerebellar neurons on purified CNS myelin; test: Neurite outgrowth of cerebellar neurons on purified CNS myelin substrate; assay type: cell-based; conditions: for block of myelin-dependent inhibition in the presence of a transcriptional inhibitor: dbcAMP 1 mM or BDNF 200 ng/ml priming, with DRB 5 μM; for block of inhibition by myelin after priming: neurons primed with neurotrophin
Method: Isolated cerebellar neurons at a density of 20,000 neurons per well were plated onto a substrate of purified CNS myelin and cultured overnight before being fixed and immunostained for GAP43. The length of the longest neurite per neuron from 180-200 neurons was measured and results are the average length+/−SEM. Where indicated, dibutyryl cAMP (dbcA) at 1 mM in the presence or absence of the inhibitor of transcription, 5,6-dichloro-1-b-D-ribofuranosylbenzimidazole (DRB) at 5 μM, was added to each culture. (B) Cerebellar neurons (1×10^6) were plated onto poly-L-lysine and cultured overnight with brain-derived neurotrophic factor (BDNF) at 200 ng/ml, (termed priming) in the presence or absence of DRB at 5 μM, before being transferred to the CNS myelin substrate.
The longest neurite from at least 180-200 neurons were measured. Results are shown as the mean neurite length+/−SEM.
as §1
Primed neurons were transferred to either MAG-expressing or control CHO cells (A) or a substrate of CNS myelin (B) for further incubation. Neurons were then fixed and immunostained for GAP43. The longest neurite from each neuron was measured for 180-200 neurons.
Trypsinization was stopped by addition of 5 ml DMEM containing 10% fetal calf serum (FCS) and cells were centrifuged at 800 rpm for 6 min. […] The ganglia were triturated with a fire-polished Pasteur pipette. […] Cells were counted with a Coulter counter.
The neurite outgrowth assay was carried out by adding 5×10^4 neurons to the immobilized myelin substrate or 2×10^4 neurons to the CHO cell monolayers. Briefly, confluent monolayers of control and MAG-expressing CHO cells were established over a 24-hour (h) period in individual chambers of an 8-well tissue culture slide (Lab-Tek). […] Culture medium was SATO containing 2% FCS.
GAP43 antibody was detected by staining with Texas Red and arginase antibody was detected with anti-biotin secondary antibody followed by Texas Red-conjugated streptavidin.
After periods of time as indicated, the co-cultures were fixed for 30 min with 4% paraformaldehyde and permeabilized with ice-cold methanol for 2 min. […] After three more washes, the slides were mounted in Permfluor (Baxter) and viewed with a Zeiss fluorescent microscope. The length of the longest neurite for each GAP43-positive neuron was determined using the Biological Detection System image analysis program (Pittsburgh).

Molecule | block of inhibition of neurite growth by MAG ([1]; agent added directly to the co-culture (dbcAMP 1 mM), overnight) | block of inhibition of neurite growth by myelin ([2]; dbcAMP 1 mM added directly to the culture) | block of myelin-dependent inhibition in the presence of a transcriptional inhibitor [2] | block of inhibition of neurite growth by MAG after priming [1] | block of inhibition by myelin after priming [2]
CCCC(=O)Nc1ncnc2c1ncn2[C@@H]1O[C@@H]2COP(=O)(O)O[C@H]2[C@H]1OC(=O)CCC [dbcAMP, dibutyryl cAMP] | blocks inhibition of neuronal growth by MAG; also recorded: blocks the inhibition of neurite growth by MAG | blocks the inhibition of neurite growth | completely lost | – | –
BDNF: Brain-derived neurotrophic factor, Trk-family neurotrophin (protein, UniProt P23560 19-247, looked up) Neurotrophic factor BDNF …: APMKEANIRGQGGLAYPGVRTHGTLESVNGPKAGSRGLTSLADTFEHVIEELLDEDQKVRPNEENNKDADLYTSRVMLSSQVPLEPPLLFLLEEYKNYLDAANMSMRVRRHSDPARRGELSVCDSISEWVTAADKKTAVDMSGGTVTVLEKVPVSKGQLKQYFYETKCNPMGYTKEGCRGIDKRHWNSQCRTTQSYVRALTMDSKKRIGWRFIRIDTSCVCTLTIKRGR | – | – | completely lost | blocks inhibition of neuronal growth by MAG; also recorded: blocked the inhibition by MAG | overcomes inhibition of regeneration by MAG and myelin
GDNF: glial cell line-derived neurotrophic factor (protein, UniProt P39905 78-211, looked up) Glial cell line-derived …: SPDKQMAVLPRRERNRQAAAANPENSRGKGRRGQRGKNRGCVLTAIHLNVTDLGLGYETKEELIFRYCSGSCDAAETTYDKILKNLSRNRRLVSDKVGQACCRPIAFDDDLSFLDDNLVYHILRKHSAKRCGCI | – | – | – | overcomes inhibition of regeneration by MAG and myelin | overcomes inhibition of regeneration by MAG and myelin
